The results in this text go back to patent US20130331325A1 (NEW YORK UNIVERSITY, published 2013).

The target of assay [1] is T1, binary complex of FGFR1c ligand-binding domain with αKlotho ectodomain (murine; human, UniProt P11362 142-365).
T1 construct: range 142-365; also called αKlotho-FGFR1c complex; binary αKlotho-FGFR1c complex; not shown: C-terminal FLAG tag
T1 sequence 1: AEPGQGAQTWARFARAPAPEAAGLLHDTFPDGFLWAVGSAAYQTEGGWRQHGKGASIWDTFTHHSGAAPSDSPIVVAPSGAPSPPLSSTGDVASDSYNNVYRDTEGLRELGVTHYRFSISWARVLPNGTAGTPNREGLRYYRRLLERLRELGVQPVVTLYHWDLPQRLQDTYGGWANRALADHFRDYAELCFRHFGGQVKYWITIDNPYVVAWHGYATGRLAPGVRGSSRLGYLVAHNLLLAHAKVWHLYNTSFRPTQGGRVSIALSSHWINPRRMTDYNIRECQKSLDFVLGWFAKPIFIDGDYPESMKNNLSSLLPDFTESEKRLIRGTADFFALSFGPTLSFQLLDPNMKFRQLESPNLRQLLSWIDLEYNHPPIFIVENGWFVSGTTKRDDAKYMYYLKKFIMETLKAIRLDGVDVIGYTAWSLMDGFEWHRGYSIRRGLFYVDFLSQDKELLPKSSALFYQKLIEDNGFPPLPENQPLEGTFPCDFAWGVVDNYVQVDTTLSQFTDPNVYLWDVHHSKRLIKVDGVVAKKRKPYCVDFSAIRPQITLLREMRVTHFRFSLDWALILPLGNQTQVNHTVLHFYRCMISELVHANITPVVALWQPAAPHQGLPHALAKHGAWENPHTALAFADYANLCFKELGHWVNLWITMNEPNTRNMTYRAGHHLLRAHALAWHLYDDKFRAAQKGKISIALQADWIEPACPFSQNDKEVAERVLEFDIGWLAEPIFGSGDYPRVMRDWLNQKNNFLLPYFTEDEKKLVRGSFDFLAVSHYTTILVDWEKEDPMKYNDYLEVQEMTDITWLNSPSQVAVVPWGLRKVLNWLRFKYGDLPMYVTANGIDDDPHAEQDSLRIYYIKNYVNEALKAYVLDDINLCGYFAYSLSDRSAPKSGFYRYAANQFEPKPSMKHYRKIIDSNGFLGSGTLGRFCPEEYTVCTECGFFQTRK
T1 sequence 2: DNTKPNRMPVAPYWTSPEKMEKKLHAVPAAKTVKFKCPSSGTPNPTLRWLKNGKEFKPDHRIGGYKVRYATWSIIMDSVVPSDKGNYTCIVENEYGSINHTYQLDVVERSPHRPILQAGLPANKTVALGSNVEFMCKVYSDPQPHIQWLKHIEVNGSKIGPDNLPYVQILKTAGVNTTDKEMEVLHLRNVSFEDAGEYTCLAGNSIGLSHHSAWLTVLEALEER
The assay is described as follows: SPR: immobilized FGF23; αKlotho-FGFR1c complex (FIG. 10E) against FGFR1c ligand-binding domain alone (FIG. 10D). From the text: (§1) FIGS. 10A-10D show overlays of SPR sensorgrams illustrating binding of FGFR1c to FGF2 (FIG. 10A), FGF19 (FIG. 10B), FGF21 (FIG. 10C), and FGF23 (FIG. 10D), and fitted saturation binding curves. Increasing concentrations of FGFR1c ligand-binding domain were passed over a biosensor chip containing immobilized FGF2, FGF19, FGF21, or FGF23. […] Increasing concentrations of αKlotho-FGFR1c complex were passed over a biosensor chip containing immobilized FGF23. […] FGF23^C-tail was immobilized on a biosensor chip and increasing concentrations of FGFR1c ligand-binding domain were passed over the chip. Dissociation constants (KDs) given in FIGS. 10A-10E were derived from the saturation binding curves.
In the target tissue, Klotho co-receptors constitutively associate with cognate receptors of endocrine FGFs to offset the inherently low receptor-binding affinity of endocrine FGFs (FIGS. 10B-10D; Kurosu et al., J. Biol. Chem. 282:26687-26695 (2007); Kurosu et al., J. Biol. Chem. 281:6120-6123 (2006); Ogawa et al., Proc. Nat'l. Acad. Sci. U.S.A. 104:7432-7437 (2007); Urakawa et al., Nature 444:770-774 (2006), which are hereby incorporated by reference in their entirety). […]

Assay [2] has as its target T2, binary complex of FGFR1c ligand-binding domain with αKlotho ectodomain (human, UniProt P11362 142-365).
T2 chain 1: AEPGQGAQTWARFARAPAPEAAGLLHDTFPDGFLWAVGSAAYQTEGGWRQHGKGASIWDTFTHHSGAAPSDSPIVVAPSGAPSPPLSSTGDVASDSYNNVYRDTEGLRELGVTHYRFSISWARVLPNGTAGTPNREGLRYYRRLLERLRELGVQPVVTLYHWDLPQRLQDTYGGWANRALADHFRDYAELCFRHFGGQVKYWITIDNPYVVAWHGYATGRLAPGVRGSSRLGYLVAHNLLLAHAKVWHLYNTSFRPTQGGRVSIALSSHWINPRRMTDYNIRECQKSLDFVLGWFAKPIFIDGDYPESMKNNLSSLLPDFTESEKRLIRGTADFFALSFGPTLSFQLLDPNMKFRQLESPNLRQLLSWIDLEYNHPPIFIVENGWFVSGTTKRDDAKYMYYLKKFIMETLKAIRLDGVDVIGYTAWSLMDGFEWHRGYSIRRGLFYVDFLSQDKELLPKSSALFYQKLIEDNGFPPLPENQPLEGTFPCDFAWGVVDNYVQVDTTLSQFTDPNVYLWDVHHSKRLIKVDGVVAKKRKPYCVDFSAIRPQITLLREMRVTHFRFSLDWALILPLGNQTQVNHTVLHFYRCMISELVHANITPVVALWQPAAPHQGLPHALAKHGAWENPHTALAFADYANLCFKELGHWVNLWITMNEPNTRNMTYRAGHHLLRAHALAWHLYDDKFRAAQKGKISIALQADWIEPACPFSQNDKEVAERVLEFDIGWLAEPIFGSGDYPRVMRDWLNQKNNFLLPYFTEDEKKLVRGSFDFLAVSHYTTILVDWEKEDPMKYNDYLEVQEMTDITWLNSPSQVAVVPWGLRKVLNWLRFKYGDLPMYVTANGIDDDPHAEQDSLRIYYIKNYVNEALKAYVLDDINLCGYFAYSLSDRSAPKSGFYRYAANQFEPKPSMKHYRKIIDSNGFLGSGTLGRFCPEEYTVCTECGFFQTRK
T2 chain 2: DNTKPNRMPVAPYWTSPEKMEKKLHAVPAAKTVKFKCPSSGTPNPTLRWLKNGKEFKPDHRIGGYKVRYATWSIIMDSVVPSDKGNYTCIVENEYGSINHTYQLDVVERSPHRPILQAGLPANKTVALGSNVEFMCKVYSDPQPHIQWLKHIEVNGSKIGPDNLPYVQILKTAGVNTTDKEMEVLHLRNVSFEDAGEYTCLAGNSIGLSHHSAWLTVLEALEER
The experiment in a line: SPR.

Assay [3] addresses T3, ligand-binding domain of human FGFR1c (D142 to R365) (human, UniProt P11362 142-365).
T3 chain: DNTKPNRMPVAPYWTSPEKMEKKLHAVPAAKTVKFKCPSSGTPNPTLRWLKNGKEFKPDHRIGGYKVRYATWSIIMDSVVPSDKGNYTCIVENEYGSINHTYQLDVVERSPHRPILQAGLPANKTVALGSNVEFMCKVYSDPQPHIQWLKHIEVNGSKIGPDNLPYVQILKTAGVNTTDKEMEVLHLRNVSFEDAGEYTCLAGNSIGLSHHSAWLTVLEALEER
The experiment in a line: SPR.

Assay [4] deals with T4, ligand-binding domain of human FGFR1c (D142 to R365) (human, UniProt P11362 142-365).
T4 construct: range 142-365
T4 sequence (looked up): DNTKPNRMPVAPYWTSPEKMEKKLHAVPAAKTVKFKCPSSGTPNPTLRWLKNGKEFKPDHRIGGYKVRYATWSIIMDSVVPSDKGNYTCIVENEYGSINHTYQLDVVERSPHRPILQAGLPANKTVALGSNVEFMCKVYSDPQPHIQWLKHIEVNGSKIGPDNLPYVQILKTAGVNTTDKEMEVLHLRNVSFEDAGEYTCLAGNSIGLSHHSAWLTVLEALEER
The experiment in a line: SPR: FGFR1c ligand-binding domain over immobilized FGF21 (FIG. 10C).
Text: as §1

Assay [5] deals with T4, ligand-binding domain of human FGFR1c …. The experiment in a line: SPR: FGF23^C-tail immobilized on chip, increasing concentrations of FGFR1c ligand-binding domain passed over (FIG. 10F).
Text: as §1

For assay [6], the target named is T1, binary complex of FGFR1c ligand-binding …. The experiment in a line: SPR competition: increasing chimera with a fixed concentration of αKlotho-FGFR1c complex over immobilized FGF23 (competitor). The source says:
FIGS. 7A and 7B show overlays of SPR sensorgrams illustrating inhibition by FGF2^ΔHBScore-FGF23^C-tail (FIG. 7A) or FGF23 (FIG. 7B) of αKlotho-FGFR1c binding to FGF23 immobilized on a biosensor chip. Increasing concentrations of FGF2^ΔHBScore-FGF23^C-tail or FGF23 were mixed with a fixed concentration of αKlotho-FGFR1c complex, and the mixtures were passed over a FGF23 chip. […] FGF2 and αKlotho-FGFR1c complex were mixed at a molar ratio of 15:1, and the mixture was passed over a biosensor chip containing immobilized FGF23. FIGS. 7D and 7E show overlays of SPR sensorgrams illustrating no inhibition by FGF2^ΔHBScore-FGF23^C-tail (FIG. 7D) or FGF23 (FIG. 7E) of βKlotho-FGFR1c binding to FGF21. FGF2^ΔHBScore-FGF23^C-tail or FGF23 were mixed with βKlotho-FGFR1c complex at a molar ratio of 10:1, and the mixtures were passed over a biosensor chip containing immobilized FGF21. […] Wild-type mice and αKlotho knockout mice were given 0.21 mg and 0.51 mg of protein, respectively, per kg of body weight. Data are presented as mean±SEM; **, P<0.01; ***, P<0.001 by ANOVA. […]
To determine whether the FGF2^ΔHBScore-FGF23^C-tail and FGF2^ΔHBScore-FGF21^C-tail chimeras gained the ability to signal in a Klotho co-receptor-dependent, endocrine fashion, it was first analyzed whether these chimeras can form ternary complexes with FGFR1c and Klotho co-receptor. […]

B1: N-terminally hexahistidine-tagged, mature form of human FGF23 (Y25 to I251) with arginines 176 and 179 replaced with glutamine (ligand)
chain: YPNASPLLGSSWGGLIHLYTATARNSYHLQIHKNGHVDGAPHQTIYSALMIRSEDAGFVVITGVMSRRYLCMDFRGNIFGSHYFDPENCRFQHQTLENGYDVYHSPQYHFLVSLGRAKRAFLPGMNPPPYSQFLSRRNEIPLIHFNTPIPRQHTQSAEDDSERDPLNVLKPRARMTPAPASCSQELPSAEDNSPMASDPLGVVRGGRVNTHAGGTGPEGCRPFAKFI
notes: also called native FGF23; wild-type FGF23; not shown: N-terminal hexahistidine tag
For the molecule B1, the “fold enhancement of the affinity of FGF23 for FGFR1c by αKlotho (against FGFR1c alone)” value in assay [1] is above 20 fold. Also, the equilibrium dissociation constant (Kd) in assay [2] stood at 27.4 nM; in assay [3] it was 648 nM.

B2: N-terminally hexahistidine-tagged, mature form of human FGF21 (H29 to S209) (ligand)
chain: HPIPDSSPLLQFGGQVRQRYLYTDDAQQTEAHLEIREDGTVGGAADQSPESLLQLKALKPGVIQILGVKTSRFLCQRPDGALYGSLHFDPEACSFRELLLEDGYNVYQSEAHGLPLHLPGNKSPHRDPAPRGPARFLPLPGLPPALPEPPGILAPQPPDVGSSDPLSMVGPSQGRSPSYAS
notes: also called native FGF21; not shown: N-terminal hexahistidine tag
In the case of B2, the binding result in assay [4] is “binds”. Also, the Kd in assay [3] is 2520 nM.

B3: N-terminally hexahistidine-tagged C-terminal tail peptide of FGF23 (S180 to I251) (peptide)
peptide: SAEDDSERDPLNVLKPRARMTPAPASCSQELPSAEDNSPMASDPLGVVRGGRVNTHAGGTGPEGCRPFAKFI
notes: also called FGF23^C-tail; not shown: N-terminal hexahistidine tag
Turning to B3, the binding result in assay [5] is listed as “no binding”.

B4: FGF2^ΔHBScore-FGF23^C-tail chimera (designed binder)
chain: MAAGSITTLPALPEDGGSGAFPPGHFKDPKRLYCKNGGFFLRIHPDGRVDGVREKSDPHIKLQLQAEERGVVSIKGVSANRYLAMKEDGRLLASKSVTDECFFFERLESNNYNTYRSRKYTSWYVALDQTGQYVLGSKTGPGQKAILFLPMRNEIPLIHFNTPIPRQHTQSAEDDSERDPLNVLKPRARMTPAPASCSQELPSAEDNSPMASDPLGVVRGGRVNTHAGGTGPEGCRPFAKFI
notes: Core domain of FGF2 (M1 to M151, K128D/R129Q/K134V, C78S/C96S) joined to the C-terminal region of FGF23 (R161 to I251, R176Q/R179Q)
Regarding B4, in assay [6], the binding result was “binds”.
